This is an account of results in patent US20100297003A1 (TECNOGEN S C P A, published 2010).

Assay [1] addresses T1, Tn (A(1-4)-D) fragment of human tenascin (human, UniProt P24821 1076-1711, limits assumed).
T1 construct: domain: A(1-4)-D
T1 sequence (looked up): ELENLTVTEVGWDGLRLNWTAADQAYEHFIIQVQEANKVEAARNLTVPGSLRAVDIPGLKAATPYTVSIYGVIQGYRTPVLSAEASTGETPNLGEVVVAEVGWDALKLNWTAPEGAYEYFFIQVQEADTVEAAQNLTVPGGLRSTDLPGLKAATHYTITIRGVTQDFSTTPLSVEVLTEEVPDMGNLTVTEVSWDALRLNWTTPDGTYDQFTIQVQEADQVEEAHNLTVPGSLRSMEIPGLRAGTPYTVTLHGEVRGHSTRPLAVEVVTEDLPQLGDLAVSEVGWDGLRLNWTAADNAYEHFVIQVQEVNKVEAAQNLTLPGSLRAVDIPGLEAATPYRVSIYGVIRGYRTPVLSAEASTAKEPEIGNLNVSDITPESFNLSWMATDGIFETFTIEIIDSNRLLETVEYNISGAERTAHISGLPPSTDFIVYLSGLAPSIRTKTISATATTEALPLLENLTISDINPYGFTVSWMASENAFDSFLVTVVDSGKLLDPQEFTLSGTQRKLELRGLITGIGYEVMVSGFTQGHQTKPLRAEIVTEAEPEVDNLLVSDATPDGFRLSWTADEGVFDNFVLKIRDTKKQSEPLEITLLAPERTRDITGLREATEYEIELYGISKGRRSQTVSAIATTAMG
Kind of assay: BIAcore on Tn (A1-4-D) fragment. (SPR reads the build-up and loss of mass on a sensor chip optically.)

Assay [2] concerns the target human tenascin C (human) (UniProt P24821). Kind of assay: BIAcore on tenascin C.
Assay [3] has the same target. Kind of assay: ELISA on tenascin C, biotinylated against non-biotinylated antibody. (In an ELISA, binding on a coated surface is turned into a signal by an enzyme label.)
Assay [4] concerns the target T1, Tn (A(1-4)-D) fragment of human tenascin. The experiment in a line: ELISA on Tn A(1-4)-D fragment, biotinylated against non-biotinylated antibody.
The target of assay [5] is human tenascin C (human) (UniProt P24821). The experiment in a line: BIAcore on whole tenascin.
Sequence of human tenascin C (human) (P24821 23-2201): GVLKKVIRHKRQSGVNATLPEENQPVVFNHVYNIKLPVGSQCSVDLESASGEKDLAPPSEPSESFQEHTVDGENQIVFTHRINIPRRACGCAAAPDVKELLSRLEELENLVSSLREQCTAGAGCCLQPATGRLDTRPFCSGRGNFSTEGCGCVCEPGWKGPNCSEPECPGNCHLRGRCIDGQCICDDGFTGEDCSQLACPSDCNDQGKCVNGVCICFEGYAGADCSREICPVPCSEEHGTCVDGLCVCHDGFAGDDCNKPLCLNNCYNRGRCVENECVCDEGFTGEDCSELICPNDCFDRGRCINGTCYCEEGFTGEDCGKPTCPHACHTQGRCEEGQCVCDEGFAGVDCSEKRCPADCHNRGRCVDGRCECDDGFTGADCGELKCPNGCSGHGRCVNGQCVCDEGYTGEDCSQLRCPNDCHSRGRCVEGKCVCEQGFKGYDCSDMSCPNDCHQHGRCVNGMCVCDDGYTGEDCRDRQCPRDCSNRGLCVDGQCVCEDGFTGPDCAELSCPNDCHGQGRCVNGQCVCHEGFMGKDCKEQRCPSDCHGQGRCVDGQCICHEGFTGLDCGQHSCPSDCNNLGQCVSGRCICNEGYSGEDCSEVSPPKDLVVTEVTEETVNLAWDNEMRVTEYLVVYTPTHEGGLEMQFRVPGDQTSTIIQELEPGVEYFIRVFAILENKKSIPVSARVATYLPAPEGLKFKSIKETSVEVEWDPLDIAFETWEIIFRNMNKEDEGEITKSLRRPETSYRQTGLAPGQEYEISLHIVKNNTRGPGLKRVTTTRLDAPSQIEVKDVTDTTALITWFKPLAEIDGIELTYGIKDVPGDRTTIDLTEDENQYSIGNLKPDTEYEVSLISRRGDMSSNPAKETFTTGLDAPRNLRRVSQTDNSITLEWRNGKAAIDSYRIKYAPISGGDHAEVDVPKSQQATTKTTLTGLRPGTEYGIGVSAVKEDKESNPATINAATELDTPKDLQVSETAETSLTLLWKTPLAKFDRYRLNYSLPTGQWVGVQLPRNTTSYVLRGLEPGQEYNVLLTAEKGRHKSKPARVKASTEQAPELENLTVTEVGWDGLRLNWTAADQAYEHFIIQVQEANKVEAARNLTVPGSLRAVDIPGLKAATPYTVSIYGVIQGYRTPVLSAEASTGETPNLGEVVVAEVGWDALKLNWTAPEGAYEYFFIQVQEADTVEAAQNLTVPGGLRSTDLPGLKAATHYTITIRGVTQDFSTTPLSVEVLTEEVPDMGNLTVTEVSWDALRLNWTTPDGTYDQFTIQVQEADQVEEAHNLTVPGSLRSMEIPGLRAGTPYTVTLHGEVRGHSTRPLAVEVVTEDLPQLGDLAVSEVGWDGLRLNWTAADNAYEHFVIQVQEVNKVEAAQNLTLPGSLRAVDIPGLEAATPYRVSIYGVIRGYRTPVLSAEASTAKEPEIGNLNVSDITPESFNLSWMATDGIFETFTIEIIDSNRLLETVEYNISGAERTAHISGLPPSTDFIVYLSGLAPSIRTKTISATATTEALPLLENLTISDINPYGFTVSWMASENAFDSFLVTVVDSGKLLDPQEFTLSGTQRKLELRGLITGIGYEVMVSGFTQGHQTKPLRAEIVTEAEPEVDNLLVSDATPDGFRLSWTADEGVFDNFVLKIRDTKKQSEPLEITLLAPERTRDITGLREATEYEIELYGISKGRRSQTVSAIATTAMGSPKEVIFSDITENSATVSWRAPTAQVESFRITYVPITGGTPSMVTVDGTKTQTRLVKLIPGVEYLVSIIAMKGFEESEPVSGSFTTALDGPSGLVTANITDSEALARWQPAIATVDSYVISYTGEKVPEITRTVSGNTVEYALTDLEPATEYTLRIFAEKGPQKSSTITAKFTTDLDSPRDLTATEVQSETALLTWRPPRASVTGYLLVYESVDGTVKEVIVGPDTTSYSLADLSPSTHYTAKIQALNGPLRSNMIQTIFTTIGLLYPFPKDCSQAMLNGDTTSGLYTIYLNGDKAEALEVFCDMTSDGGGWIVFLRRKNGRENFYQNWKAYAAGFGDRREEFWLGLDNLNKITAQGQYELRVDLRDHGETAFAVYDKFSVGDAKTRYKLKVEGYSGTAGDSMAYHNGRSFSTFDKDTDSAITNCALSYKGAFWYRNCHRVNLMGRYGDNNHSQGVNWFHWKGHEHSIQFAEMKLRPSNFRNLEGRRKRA
The target in assay [6] is T1, Tn (A(1-4)-D) fragment of human tenascin. Kind of assay: ELISA on plates coated with Tn A(1-4)-D fragment, reference BC-2. As for the experimental part:
The immunoreactivity of ST2485 was evaluated in comparison with BC-2 by ELISA assay on tenascin C and on the Tn A₍₁₋₄₎-D fragment, as shown in FIG. 7. The antibodies ST2485 and BC-2 and the normal mouse immunoglobulins (nMIgG) were dispensed at increasing concentrations on plates sensitised with tenascin C (a) or with the Tn A₍₁₋₄₎-D fragment (b); the addition of the secondary antimouse antibody labelled with alkaline phosphatase and the related chromogenic substrate (pNPP) made it possible to determine the dose-response curve of the antibodies. The amount of ST2485 necessary to obtain 1.0 OD is approximately 13 times less than the amount of BC-2 on whole tenascin (a), and approximately 10 times less than the amount of BC-2 on the Tn (A1-4-D) fragment (b).

Assay [7] addresses T2, EGF-like fragment of human tenascin (human, UniProt P24821 174-621, limits assumed).
T2 construct: domain: EGF-like
T2 sequence (looked up): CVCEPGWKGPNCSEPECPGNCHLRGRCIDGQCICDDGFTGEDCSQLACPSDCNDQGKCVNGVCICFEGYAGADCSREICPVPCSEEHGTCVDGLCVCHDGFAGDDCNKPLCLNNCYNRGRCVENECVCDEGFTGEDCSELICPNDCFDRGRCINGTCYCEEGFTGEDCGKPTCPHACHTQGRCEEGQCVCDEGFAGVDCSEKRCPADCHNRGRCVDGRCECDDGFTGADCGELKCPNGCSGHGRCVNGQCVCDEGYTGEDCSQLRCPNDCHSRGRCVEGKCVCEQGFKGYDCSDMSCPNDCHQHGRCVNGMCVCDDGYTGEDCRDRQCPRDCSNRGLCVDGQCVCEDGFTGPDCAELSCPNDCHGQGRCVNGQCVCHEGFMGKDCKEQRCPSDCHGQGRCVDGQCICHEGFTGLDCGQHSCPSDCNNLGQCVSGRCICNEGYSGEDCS
The experiment in a line: Western blot.

Assay [8] addresses T1, Tn (A(1-4)-D) fragment of human tenascin. The experiment in a line: competitive ELISA on plates coated with Tn A(1-4)-D fragment; unlabelled antibody at increasing concentration against biotinylated BC-2 at a fixed concentration, HRP-streptavidin/TMB. As for the experimental part: The biotinylated antibody BC-2, at a concentration established in preliminary experiments, is dispensed with non-biotinylated BC-2 (curve 1) or ST2485 (curve 2) in increasing concentrations on plates sensitised with the antigen tenascin C (a), or Tn A₍₁₋₄₎-D fragment (b). The binding of the biotinylated antibody is measured after addition of HRP-streptavidin and the related chromogenic substrate TMB.

The target of assay [9] is human tenascin C (human) (UniProt P24821). The experiment in a line: ELISA on plates coated with tenascin C, alkaline phosphatase anti-mouse antibody, pNPP.
Assay [10] has the same target. Kind of assay: ELISA on plates coated with tenascin C, reference BC-2.
Assay [11] shares this target. Kind of assay: competitive ELISA on tenascin C; competitor biotinylated BC-2 at fixed concentration.
Assay [12] has the same target. Kind of assay: BIAcore on whole tenascin, reference biotinylated BC-2.

The Kd is a measure of binding affinity in units of concentration. Low values mean higher affinity, high ones lower affinity. For anti-tenascin monoclonal antibody BC-2, the Kd in assay [1] came out at 73.9 nM; in the assay with human tenascin C (human) [2], 254 nM.
For biotinylated BC-2 (antibody), the residual immunoreactivity with human tenascin C (human) [3] came to 88%; in assay [4], 83%. The molecule further gave a Kd with human tenascin C (human) [5] of 371 nM.

B1: anti-human tenascin monoclonal antibody ST2485 (antibody, V domains shown)
VH: EVQLQQSGPELVKPGASMKISCKASGYSFTGYTMNWVKQSHGKNLEWIGLINPHNGGTTYNQKFKGKATLTVDKSSNTAYMELLSLTSEDSAVYYCTRPGGYYWFFDVWGAGTTVTVSS
VL: QIVLSQSPAILSASPGEKVTMTCRANSSVRFMHWYQQKPGSSPKPWIYATSNLASGVPARFSGSGSGTSYSVTISRVEAEDAATYYCQQWSSNSPRTFGGGTKVEIRR
modifications: part of the light chain is N-glycosylated (glycosylated and non-glycosylated variants; site not numbered)
notes: Mouse immunoglobulin of IgG1/k isotype from hybridoma cST2485
In general, koff refers to the rate constant with which the complex falls apart. The low end stands for slow dissociation, the high end for fast dissociation. Usually kon stands for the rate constant with which the complex forms. Low values mean slow association, high ones fast association. By EC50 (read off the curve) is commonly meant the midpoint of the concentration-response curve. Higher therefore signals weaker potency. As for B1, in assay [6], the “fold less antibody than BC-2 needed to obtain 1.0 OD” value was about 10 fold. Besides, the binding result in assay [7] was “no binding”. In assay [1], this molecule gave a Kd of 0.972 nM, a koff of 0.000319 s⁻¹ and a kon of 328000 M⁻¹ s⁻¹. Besides, the “IC50 (read off the curve)” value in [8] was about 0.03 µg/mL. In the assay with human tenascin C (human) [9], this molecule gave an EC50 (read off the curve) of 0.02 µg/mL. Besides, in the assay with human tenascin C (human) [10], the fold less antibody than BC-2 needed to obtain 1.0 OD amounted to 13 fold. The molecule further returned a Kd with human tenascin C (human) [2] of 0.977 nM. In the assay with human tenascin C (human) [11], this molecule came in with a % inhibition of BC-2 binding of 40%.

B2: biotinylated ST2485 (antibody, V domains shown)
VH: B1 VH
VL: B1 VL
modifications: biotinylated, 8.3 biotins/molecule of antibody (sites not given)
In turn, B2 showed a fold greater affinity than biotinylated BC-2 in the assay with human tenascin C (human) [12] of 100 fold. Also, the residual immunoreactivity with human tenascin C (human) [3] was 76%. The Kd in the assay with human tenascin C (human) [5] came to 2.88 nM.
